± gives the uncertainty stated by the source.
Test: self-splicing fitness, log relative to wild type (ln ratio); higher = more splicing; Tetrahymena group I intron in knt gene, E. coli kanamycin selection, DiMSum; sequences stand for … in CUCUCU…GGAGGGAAAAGUUAUCAGGCAUGCACCUGGUAGCUAGUCUUUAAACCAAUAGAUUGCAUCGGUUUAAAAGGCAAGACCGUCAAAUUGCGGGAAAGGGGUCAACAGCCGUUCAGUACCAAGUCUCAGGGGAAACUUUGAGAUGGCCUUGCAAAGGGUAUGGUAAUAAGCUGACGGACAUGGUCCUAACCACGCAGCCAAGUCCUAAGUCAACAGAUCUUCUGUUGAUAUGGAUGCAGUUCACAGACUAAAUGUCGGUCGGGGAAGAUGUAUUCUUCUCAUAAGAUAUAGUCGGACCUCUCCUUAAUGGGAGCUAGCGGAUGAAGUGAUGCAACACUGGAGCCGCUGGGAACUAAUUUGUAUGCGAAAGUAUAUUGAUUAGUUUUGGAGUACUCGUGGUCG
Procedure, shortened: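 DiMSum derived fitness as the error-weighted combination of fold changes across replicates, kanamycin versus no kanamycin, normalised to wild type. E. coli BL21(DE3) held the library, which randomised all eight P1ex-region intron nucleotides within the knt kanamycin-resistance gene on pET-22b(+). Six replicate transformations grew overnight at 37°C or 30°C on LB agar with or without 25 μg/mL kanamycin, also containing 100 μg/mL carbenicillin, 50 μM IPTG and 0.2% rhamnose, and pooled colonies were amplicon-sequenced on an Illumina HiSeq 2500.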

Sequence | self-splicing fitness (ln) (30 °C) | self-splicing fitness (ln) (37 °C)
ACAAAGCAAUAUUACGUCGU | -2.74 ± 0.093 | -2.05 ± 0.12
ACAAAGCAAUAUUACGUGAG | -0.439 ± 0.049 | -0.4 ± 0.079
ACAAAGCAAUAUUACGUGAU | -1.51 ± 0.063 | -1.09 ± 0.086
ACAAAGCAAUAUUACGUGGC | -3.72 ± 0.21 | -2.91 ± 0.18
ACAAAGCAAUAUUACGUUAA | -2.91 ± 0.17 | -1.32 ± 0.12
ACAAAGCAAUAUUACGUUGA | -1.49 ± 0.079 | -1.24 ± 0.089
ACACAGCAAUAUUACGAAAG | -2.32 ± 0.074 | -2.06 ± 0.11
ACACAGCAAUAUUACGACAA | -1.86 ± 0.11 | -0.755 ± 0.14
ACACAGCAAUAUUACGACUC | -0.737 ± 0.063 | -0.631 ± 0.072
ACACAGCAAUAUUACGAGGG | -3.71 ± 0.11 | -1.85 ± 0.1
ACACAGCAAUAUUACGAGUG | -1.43 ± 0.041 | -0.923 ± 0.057
ACACAGCAAUAUUACGAUCC | -1.21 ± 0.093 | -0.951 ± 0.13
ACACAGCAAUAUUACGAUCU | -0.658 ± 0.053 | 0.14 ± 0.082
ACACAGCAAUAUUACGAUGC | -1.92 ± 0.073 | -0.965 ± 0.094
ACACAGCAAUAUUACGAUUU | -0.589 ± 0.036 | 0.0571 ± 0.056
ACACAGCAAUAUUACGCAUA | -2.45 ± 0.08 | -1.49 ± 0.072
ACACAGCAAUAUUACGCCAC | -3.38 ± 0.33 | -2.66 ± 0.31
ACACAGCAAUAUUACGCCAG | -2.45 ± 0.1 | -1.13 ± 0.13
ACACAGCAAUAUUACGCCGA | -1.15 ± 0.08 | -1.34 ± 0.094
ACACAGCAAUAUUACGCGAA | -2.47 ± 0.12 | -1.4 ± 0.12
ACACAGCAAUAUUACGCUGC | -2.18 ± 0.16 | -1.14 ± 0.15
ACACAGCAAUAUUACGGAAA | -3.13 ± 0.26 | -2.5 ± 0.22
ACACAGCAAUAUUACGGACA | -1.63 ± 0.095 | -1.04 ± 0.089
ACACAGCAAUAUUACGGCGA | -0.436 ± 0.086 | -0.165 ± 0.09

Sequence | self-splicing fitness (ln) (30 °C) | self-splicing fitness (ln) (37 °C)
ACACAGCAAUAUUACGGGCA | -1.48 ± 0.078 | -0.0778 ± 0.091
ACACAGCAAUAUUACGGGCC | -3.37 ± 0.19 | -2.11 ± 0.18
ACACAGCAAUAUUACGGGGG | -2.9 ± 0.14 | -2.45 ± 0.15
ACACAGCAAUAUUACGGUCA | -0.813 ± 0.071 | 0.0237 ± 0.077
ACACAGCAAUAUUACGUACA | -1.05 ± 0.059 | -0.954 ± 0.068
ACACAGCAAUAUUACGUACG | -1.19 ± 0.067 | -0.925 ± 0.081
ACACAGCAAUAUUACGUGCC | -1.71 ± 0.12 | -0.549 ± 0.093
ACACAGCAAUAUUACGUUGA | -1.91 ± 0.091 | -1.92 ± 0.11
ACACAGCAAUAUUACGUUGC | -3.87 ± 0.11 | -2.58 ± 0.12
ACACAGCAAUAUUACGUUUG | -2.67 ± 0.067 | -1.59 ± 0.081
ACAGAGCAAUAUUACGAGAC | -3.23 ± 0.37 | -2.67 ± 0.31
ACAGAGCAAUAUUACGAGUU | -3.3 ± 0.2 | -1.8 ± 0.14
ACAGAGCAAUAUUACGAUAG | -2.78 ± 0.26 | -3.02 ± 0.35
ACAGAGCAAUAUUACGCAGA |  | -2.25 ± 0.33
ACAGAGCAAUAUUACGCAGC |  | -2.25 ± 0.33
ACAGAGCAAUAUUACGCGAA | -3.58 ± 0.25 | -1.21 ± 0.18
ACAGAGCAAUAUUACGCGCA | -3.09 ± 0.26 | -0.798 ± 0.18
ACAGAGCAAUAUUACGCGGG | -4.91 ± 0.46 | -3.54 ± 0.37
ACAGAGCAAUAUUACGCUGC | -4.55 ± 0.46 | 
ACAGAGCAAUAUUACGGACA | -2.99 ± 0.3 | -2.45 ± 0.25
ACAGAGCAAUAUUACGGAGC | -4.22 ± 0.34 | -3.15 ± 0.25
ACAGAGCAAUAUUACGGCAU | -3.25 ± 0.23 | -0.707 ± 0.17
ACAGAGCAAUAUUACGGGCG | -3.27 ± 0.19 | -1.25 ± 0.2
ACAGAGCAAUAUUACGUAAA | -3.71 ± 0.16 | -2.09 ± 0.13

Sequence | self-splicing fitness (ln) (30 °C) | self-splicing fitness (ln) (37 °C)
ACAGAGCAAUAUUACGUAGA | -4.17 ± 0.37 | -2.19 ± 0.21
ACAGAGCAAUAUUACGUCAA | -2.04 ± 0.21 | -3.16 ± 0.3
ACAGAGCAAUAUUACGUCCU | -1.35 ± 0.21 | -0.399 ± 0.2
ACAGAGCAAUAUUACGUCUA | -3.22 ± 0.33 | -1.73 ± 0.29
ACAGAGCAAUAUUACGUCUC | -3.77 ± 0.19 | -2.4 ± 0.17
ACAGAGCAAUAUUACGUGGG | -2.64 ± 0.12 | -2.4 ± 0.16
ACAGAGCAAUAUUACGUGUA | -3.11 ± 0.15 | -2.62 ± 0.14
ACAGAGCAAUAUUACGUUAG | -3.09 ± 0.16 | -2.87 ± 0.2
ACAUAGCAAUAUUACGAGUA | -3.54 ± 0.43 | -1.8 ± 0.23
ACAUAGCAAUAUUACGAUGA | -0.75 ± 0.072 | -0.575 ± 0.086
ACAUAGCAAUAUUACGCAGC |  | -3.15 ± 0.31
ACAUAGCAAUAUUACGCAGG | -2.73 ± 0.15 | -2.23 ± 0.17
ACAUAGCAAUAUUACGCCGU | -2.02 ± 0.17 | -1.23 ± 0.2
ACAUAGCAAUAUUACGCGAA | -3.3 ± 0.13 | -1.03 ± 0.098
ACAUAGCAAUAUUACGCGAG | -1.01 ± 0.07 | -0.654 ± 0.079
ACAUAGCAAUAUUACGCGUA | -2.19 ± 0.091 | -0.613 ± 0.086
ACAUAGCAAUAUUACGCUGU | -3.64 ± 0.18 | -2.69 ± 0.22
ACAUAGCAAUAUUACGCUUA | -1.76 ± 0.19 | -1.55 ± 0.17
ACAUAGCAAUAUUACGCUUU | -2.82 ± 0.16 | -2.53 ± 0.32
ACAUAGCAAUAUUACGGAAU | -3.72 ± 0.19 | -2.44 ± 0.19
ACAUAGCAAUAUUACGGACG | -1.32 ± 0.1 | -0.653 ± 0.14
ACAUAGCAAUAUUACGGAUA | -1.75 ± 0.17 | -2.34 ± 0.21
ACAUAGCAAUAUUACGGCCA | -0.771 ± 0.12 | -0.572 ± 0.13
ACAUAGCAAUAUUACGGCGC | -1.1 ± 0.083 | -0.521 ± 0.11

Sequence | self-splicing fitness (ln) (30 °C) | self-splicing fitness (ln) (37 °C)
ACAUAGCAAUAUUACGGCUG | -0.175 ± 0.067 | -0.366 ± 0.095
ACAUAGCAAUAUUACGGGAG | -2.13 ± 0.11 | -1.52 ± 0.11
ACAUAGCAAUAUUACGGGCC |  | -1.59 ± 0.2
ACAUAGCAAUAUUACGGGUG | -1.25 ± 0.046 | -0.515 ± 0.064
ACAUAGCAAUAUUACGUACU | -0.24 ± 0.077 | 0.46 ± 0.12
ACAUAGCAAUAUUACGUAUC | -3.37 ± 0.19 | -1.62 ± 0.2
ACAUAGCAAUAUUACGUCAU | -3.16 ± 0.1 | -2.35 ± 0.13
ACAUAGCAAUAUUACGUCUU | -1.33 ± 0.077 | -0.302 ± 0.084
ACAUAGCAAUAUUACGUGAC | -3.15 ± 0.15 | -2.16 ± 0.15
ACAUAGCAAUAUUACGUUAG | -3.66 ± 0.17 | -1.66 ± 0.14
ACAUAGCAAUAUUACGUUCG | -1.04 ± 0.075 | -0.65 ± 0.1
ACAUAGCAAUAUUACGUUUU | -3.76 ± 0.16 | -2.59 ± 0.17
ACCAAGCAAUAUUACGAAAC | -4.33 ± 0.34 | -1.71 ± 0.25
ACCAAGCAAUAUUACGAAGG | -2.34 ± 0.12 | -1.09 ± 0.14
ACCAAGCAAUAUUACGACUA | -0.894 ± 0.099 | -0.585 ± 0.093
ACCAAGCAAUAUUACGAUGC | -2.45 ± 0.088 | -0.944 ± 0.11
ACCAAGCAAUAUUACGCAAC | -3.4 ± 0.38 | -1.01 ± 0.17
ACCAAGCAAUAUUACGCACC | -0.532 ± 0.078 | -0.199 ± 0.11
ACCAAGCAAUAUUACGCACU | -0.396 ± 0.07 | 0.498 ± 0.085
ACCAAGCAAUAUUACGCCUU | -2.87 ± 0.15 | -1.97 ± 0.15
ACCAAGCAAUAUUACGCGAA | -3.09 ± 0.13 | -1.65 ± 0.1
ACCAAGCAAUAUUACGCGAU | -2.1 ± 0.079 | -1.17 ± 0.11
ACCAAGCAAUAUUACGCGGG | -3.38 ± 0.11 | -2.18 ± 0.1
ACCAAGCAAUAUUACGCUAU | -1.66 ± 0.087 | -0.775 ± 0.098

Source: the supplement of paper PMC7877785
